{
  "source": "patent US11857645B2",
  "about": "“Compositions of near IR closed chain, sulfo-cyanine dyes and prostate specific membrane antigen ligands” (priority 2016, dated 2024)",
  "key": {"[1]": {"test": "in vitro metabolic stability: breakdown into metabolites", "format": "in vitro ADME", "description": "(§1) For example, determination of metabolic stability is commonly examined when assessing the toxicity of a compound as it is one of several major determinates in defining the oral bioavailability and systemic clearance of a compound. After a compound is administered orally, it first encounters metabolic enzymes in the gastrointestinal lumen as well as in the intestinal epithelium. After it is absorbed into the bloodstream through the intestinal epithelium, it is first delivered to the liver via the portal vein. A compound can be effectively cleared by intestinal or hepatic metabolism before it reaches systemic circulation, a process known as first pass metabolism. The stability of a compound towards metabolism within the liver as well as extrahepatic tissues will ultimately determine the concentration of the compound found in the systemic circulation and affect its half-life and residence time within the body. Cytochrome P450 (CYP) enzymes are found primarily in the liver but also in the intestinal wall, lungs, kidneys and other extrahepatic organs and are the major enzymes involved in compound metabolism. Many compounds undergo deactivation by CYPs, either directly or by facilitated excretion from the body. […]\n(§2) Further safety pharmacology was assessed in vitro using the human ether-a-go-go related gene (hERG) assay for determining possible cardio-toxic effects."}, "[2]": {"test": "stability in human plasma (in vitro metabolic stability studies)", "format": "in vitro ADME", "description": "as §1, §2"}, "[3]": {"test": "stability in dog plasma (in vitro metabolic stability studies)", "format": "in vitro ADME", "description": "as §1, §2"}, "[4]": {"test": "mortality in rat animal model", "format": "in vivo", "conditions": "any tested dose", "from_the_text": "(§3) Other methods of assessing the toxicity of compounds include in vivo studies which administer relatively large doses of a test compound to a group of animals to determine the level which is lethal to a percentage of the population (mean lethal dose LD50 or mean lethal concentration LC50). Toxicity of a compound can also be assessed in vivo by examining whether a compound produces statistically significant negative effects on cardiac, blood pressure, central nervous system (CNS), body weight, food intake, gross or microscopic pathology, clinical pathology, or respiratory measures in an animal.\n(§4) Furthermore, toxicology of the composition of formula III was also investigated in non-clinical in vivo studies in both rats and dogs."}, "[5]": {"system": "9 major CYP liver enzymes", "test": "reactivity to CYP liver enzymes", "format": "in vitro ADME", "conditions": "in vitro", "description": "as §1, §2"}, "[6]": {"test": "stability in rat plasma (in vitro metabolic stability studies)", "format": "in vitro ADME", "description": "as §1, §2"}, "[7]": {"system": "tester strains (histidine (his) biosynthetic operon mutants)", "test": "Ames reverse mutation assay", "format": "cell-based", "conditions": "any of the tested doses", "from_the_text": "The Ames reverse mutation Assay is another common toxicology assay for assessing the toxicity of a compound. The Ames Assay, utilizes several different tester strains, each with a distinct mutation in one of the genes comprising the histidine (his) biosynthetic operon (Ames, B. N., et al., (1975) Mutation Res. 31:347-363). […] The Ames Assay is capable of detecting several different types of mutations (genetic damage) that may occur in one or more of the tester strains. The practice of using an in vitro bacterial assay to evaluate the genotoxic activity of drug candidates is based on the prediction that a substance that is mutagenic in a bacterium is likely to be carcinogenic in laboratory animals, and by extension may be carcinogenic or mutagenic to humans.\nas §2"}, "[8]": {"test": "mortality in dog animal model", "format": "in vivo", "conditions": "any tested dose", "from_the_text": "as §3, §4"}, "[9]": {"conditions": "in vivo", "from_the_text": "as §3, §4"}, "[10]": {"test": "mortality in pig animal model", "format": "in vivo", "conditions": "any tested dose", "from_the_text": "as §3, §4"}},
  "data": [
    {"smiles": "CC1(C)C(/C=C/C2=C(Oc3ccc(S(=O)(=O)O)cc3)C(=C/C=C3/N(CCCS(=O)(=O)O)c4ccccc4C3(C)CCCC(=O)NCCCCC(NC(=O)CCCCCCC(=O)NCCCC[C@H](NC(=O)N[C@@H](CCC(=O)O)C(=O)O)C(=O)O)C(=O)O)/CCC2)=[N+](CCCS(=O)(=O)[O-])c2ccccc21", "note": "(stereo partly drawn) [formula III]", "values": [
      {"measurement": "breakdown into metabolites", "setting": "[1]", "result": "does not appear to be broken down into metabolites"},
      {"measurement": "stability in plasma", "setting": "[2]", "result": "stable"},
      {"measurement": "stability in plasma", "setting": "[3]", "result": "stable"},
      {"measurement": "mortality", "setting": "[4]", "result": "No mortality"},
      {"measurement": "reactivity to CYP liver enzymes", "setting": "[5]", "result": "does not show any significant reactivity"},
      {"measurement": "stability in plasma", "setting": "[6]", "result": "stable"},
      {"measurement": "mutagenicity", "setting": "[7]", "result": "does not show any mutagenicity"},
      {"measurement": "mortality", "setting": "[8]", "result": "No mortality"},
      {"measurement": "effects on body weight, food intake, gross or microscopic pathology and clinical pathology", "setting": "[9]; dog", "result": "no significant effects"},
      {"measurement": "effects on cardiac, blood pressure or respiratory measures", "setting": "[9]; dog", "result": "no statistically significant negative effects"},
      {"measurement": "effects on the central nervous system (CNS)", "setting": "[9]; rat", "result": "no biologically meaningful effects"},
      {"measurement": "mortality", "setting": "[10]", "result": "No mortality"}
    ]}
  ]
}
